# Experimental data taken from US20060253917A1 (published 2006).
# Ends that are not written are not given here.
# T1: OsCS aa 316-583 (Oryza sativa, UniProt A2Y0X2 316-583)
# T1 construct: bait, Gal4 DBD fusion; also called PN19707
# T1 sequence: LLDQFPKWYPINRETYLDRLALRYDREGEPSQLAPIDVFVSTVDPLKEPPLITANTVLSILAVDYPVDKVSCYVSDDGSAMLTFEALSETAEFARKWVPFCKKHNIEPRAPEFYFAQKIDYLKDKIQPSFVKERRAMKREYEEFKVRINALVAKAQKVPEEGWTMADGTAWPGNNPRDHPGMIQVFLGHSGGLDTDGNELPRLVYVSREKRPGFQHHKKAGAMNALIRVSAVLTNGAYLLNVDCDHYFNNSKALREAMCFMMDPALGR
# T2: OsGF14-c aa 1-150 (Oryza sativa, UniProt Q6ZKC0 1-150)
# T2 construct: bait, Gal4 DBD fusion; also called PN12464; O. sativa 14-3-3 Protein Homolog GF14-c
# T2 sequence: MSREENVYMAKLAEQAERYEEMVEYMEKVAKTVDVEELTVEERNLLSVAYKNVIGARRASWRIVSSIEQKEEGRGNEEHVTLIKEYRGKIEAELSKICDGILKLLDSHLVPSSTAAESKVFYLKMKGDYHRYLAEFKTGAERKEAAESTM
# T3: OsERP (PN20696) aa 50-145 (Oryza sativa, UniProt Q0JBH9 50-144)
# T3 construct: bait, Gal4 DBD fusion; also called Elicitor responsive protein
# T3 sequence: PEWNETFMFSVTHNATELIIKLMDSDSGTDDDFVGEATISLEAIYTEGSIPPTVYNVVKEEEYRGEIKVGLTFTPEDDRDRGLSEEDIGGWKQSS
# B1: OsPIP2A aa 123-290 (other)
# chain: RKVSLVRAILYIVAQCLGAICGVGLVNAFPNAYFNRYGGGANTLAAGYSKGTGLAAEIIGTFVLVYTVFSATDPKRNARDSHVPVLAPLPIGFAVFMVHLATIPITGTGINPARSIGAAVIFNNEKAWHNHWIFWVGPFVGAAIAAFYHQYILRAGAIKALGSFRSNA
# notes: prey, AD fusion; also called PN29098; O. sativa Aquaporin
# B2: OsPN29077 aa 1-242 (other)
# chain: VEAQKKIEAAIRQKGIDENWEAALEHNPEAFARVVMLYVDMEVNGVPLKAFVDSGAQSTIISKSCAERCGLLRLLDQRYRGVAIGVGQSEILGRIHVAPIKIGHVFYPCSFTVLDAPNMEFLFGLDMLRKHQCIIDLKDNVLRVGGGEVSVPFLQEKDIPSHIRDEEKLSKLASLSQGAAGESSTAREKTPDAPPRAPTTGAPAVNPPQPQGGGDFEAKVTKLVELGFDRASVIQALKLFNG
# notes: prey, AD fusion; also called Novel Protein PN29077, Fragment, Similar to A. thaliana DNA-Damage Inducible Protein DDI1-Like
# B3: OsPN29076 aa 1-187 (other)
# chain: ERDISMVNSYPPSAFDCKGWNSASIFIYESDEEIQCLLDWLRDYDPREKELKDSILQWQRHFCHQSSSPLVDPPISGPKGEQLMELPNTKAAVILEQKYGLQLDQDTSDLPKKRGKKIKLSSEDRTYRCDCLEPVWPSRYHCLTCHETYLISTEFEGHNDGKCSKIHQSPDESRENDEPKVKVTKSD
# notes: prey, AD fusion; also called Novel Protein PN29076, Fragment
# B4: OsAAB53810 aa 6-145 (other)
# chain: IGPWGGNGGSAQDISVPPKKLLGVTIYSSDAIRSIAFNYIGVDGQEYAIGPWGGGESTSTEIKLGSSEQIKEISGTHGPVYDLADIVTYLKIVTSANNTYEAGVPNGKEFSIPLQDSGHVVGFFGRSGTLIDAIGIYVHP
# notes: prey, AD fusion; also called PN29086; O. sativa salT Gene Product
# B5: OsPN29982 aa 201-300 (other)
# chain: SPVVDNADVTETKPQTELPVHVMCAEWSSQKRLKKVQLETLERVYSRTKRPTNTMISSIVQVTSLPRKTIVKWFEDRREQDGVPDHRVAFKRSLSETIAS
# notes: prey, AD fusion; also called Novel Protein PN29982
# B6: OsAAB46718 aa 82-126 (other)
# chain: SPEEWSPTGDTYVGGTTGLLIWAVTLAGLLGGGALLVYNTSALAG
# modifications: not fully specified
# notes: prey, AD fusion; also called PN22840; O. sativa Photosystem II 10 kDa Polypeptide
# B7: OsPN22874 aa 1-88 (other)
# chain: GTNPGFRVGEIRLSNRDIYFGTLLGNTPEGSGRYVWSDGCTYDGEWRRGMRHGQGKTMWPSGATYEGEYSGGYIYGEGTYTGSDNIVY
# notes: prey, AD fusion; also called Novel Protein 22874, Fragment, similar to Arabidopsis Putative Phosphatidylinositol-4-phosphate 5-kinase
# B8: OsPN23059 aa 193-333 (other)
# chain: DGIDYAAVTVQLPGGERVPFLFTIKNLVATGKPESFGGPFLVPSYRGSSFLDPKGRGGSTGYDNAVALPAGGRGDEEELAKENVKNASSSTGNITLSVTKSKPETGEVIGVFESVQPSDTDLGAKVPKDVKIQGVWYAQLE
# notes: prey, AD fusion; also called OsContig4331, O. sativa Putative 33 kDa Oxygen-Evolving Protein of Photosystem II
# B9: OsBAB61062 aa 463-511 (other)
# chain: AIDTYDDHRMAMAFSLAACADVPVTIRDPGCTRKTFPNYFDVLSTFVRN
# modifications: not fully specified; cysteine pairing not given here
# notes: prey, AD fusion; also called PN22844; O. sativa 3-Phosphoshikimate 1-carboxyvinyltransferase (EPSP Synthase)
# B10: OsPN30974 aa 38-178 (other)
# chain: GGYDHPGLIPGLPDEISLQILARMPRMGYLNAKMVSRSWKAAITGVELYRVRKELGVSEEWLYMLTKSDDGKLVWNAFDPVCGQWQRLPLMPGISHGGECKRGIPGLWLGDLLSAGIRVSDVIRGWLGQRDSLDRLPFCGC
# notes: prey, AD fusion; also called Novel Protein PN30974
# B11: OsPN22858 aa 27-154 (other)
# chain: DKPTDGFSSIDEAIGALHEGKFVIAVDDESGDNEGDLVMAATLADPESIAFMIRNGSGIISVGMKEEDLTRLMIPMMSPIAEIEDISAAASTVTVDARVGISTGVSAADRAKTIFTLASPDSKPTDLR
# notes: prey, AD fusion; also called Novel Protein 22858, Fragment, similar to Arabidopsis GTP Cyclohydrolase II
# B12: OsPN30846 aa 1-266 (other)
# chain: APRRPSTFLNAVALGNVGAGKSAVLNSLIGHPVLPTGENGATRAPIVVDLQRDPGLSSKSIVLQIDSKSQRVSASSLRHSLQDRLSKGASSGSSRGRVEGINLKLRTSTAPPLKLVDLPGIDQRAVDDPMINEYAGHNDAILLVVIPAMQAADVASSRALRLAKDIDADGTRTVGVISKVDQAEGDAKTIACVQALLLNKGPKNLPDIEWVALIGQSVAIASAQAAGSENSLETAWNAEAETLRSILTGAPKSKLGRIALVDTIAK
# notes: prey, AD fusion; also called Novel Protein PN30846
# B13: OsBAA02730 aa 206-269 (other)
# chain: QDNGLVPIVEPEILLDGEHGIDRTFEVAQKVWAETFFYMAENNVMFEGILLKPSMVTPGAECKD
# notes: prey, AD fusion; also called PN22832; O. sativa Fructose-Bisphosphate Aldolase, Chloroplast Precursor
# B14: OsPN23061 aa 94-203 (other)
# chain: VITWTSPKEQVFEMPTGGAAIMREGPNLLKLARKEQCLALGTRLRSKYKINYQFYRVFPNGEVQYLHPKDGVYPEKVNAGRQGVGQNFRSIGKNVSPIEVKFTGKNVFDI
# notes: prey, AD fusion; also called Hypothetical Protein OsContig3864, Similar to H. vulgare Photosystem I Reaction Center Subunit II, Chloroplast Precursor
# B15: OsPN22866 aa 95-305 (other)
# chain: LLALSDDLVKSNVFIEGVSHKIRRQIEELERAGGVESGALTVDGVPVDTYLTRFVWDEGKYPTMSPLKEIAGSIQSQVSKIEDDMKVRGAEYNNVRSQLNAINRKQTGSLAVRDLSNLVKPEDMVTSEHLVTLLAVVPQYSQKDWLSSYESLDTFVVPRSSKKLYEDNEYALYTVTLFAKVVDNFKVRAREKGFQVRDFEYSSEAQESRKE
# notes: prey, AD fusion; also called Novel Protein PN22866, Fragment, Similar to A. Thaliana Vacuolar ATP Synthase Subunit C
# B16: OsPN23059 aa 90-169 (other)
# chain: PRRLTFDEIQSKTYMEVKGTGTANQCPTVEGGVDSFAFKAGKYNMKKFCLEPTSFTVKAEGVAKNAPPEFQKTKLMTRLT
# notes: prey, AD fusion; also called OsContig4331
# B17: OsRCAA1 aa 68-210 (other)
# chain: DISDDQQDITRGKGFVDSLFQAPTGDGTHEAVLSSYEYLSQGLRTYDFDNTMGGFYIAPAFMDKLVVHISKNFMTLPNIKVPLILGIWGGKGQGKSFQCELVFAKMGINPIMMSAGELESGNAGEPAKLIRQRYREAADIIKK
# notes: prey, AD fusion; also called PN19842; O. sativa Ribulose Bisphosphate Carboxylase/Oxygenase Activase, Large Isoform A1
# B18: PN30868 aa 167-336 (other)
# chain: YNELAQLRAGKSSKSKLLIAKFKSPKSLNGWEVDQGSYFPNTFASRFDEGIDASFDFSEAGQAVFSGFVFTRGGYVEISKRLSLPLGSTLDRYDGLLFSVGGNGRSYVVILETGPLADTSQSKKYFARMTTKVGFCRVRVPFSAFRPVNPQDPPLDPFLVHTLTIRFEPK
# notes: prey, AD fusion
# B19: PN30845 aa 1-64 (other)
# chain: GDQGRTYLFRVSNVGVKTSVNVRIQGHSLRLVEVEGTHPVQNVYDSLDVHVGQSVAFLVTLDKA
# notes: prey, AD fusion; also called Pectinesterase-like
# B20: PN29984 aa 5-41 (other)
# chain: SSGTTSRPTASRTQQTKGRLTVTISLKAYSPGRTRSG
# notes: prey, AD fusion; also called Novel Protein PN29984
# B21: PN30843 aa 164-221 (other)
# chain: RALQNFTAEELLDGGEKQYQCQRCRKKVVAKKKFTIDKAPYVLTIHLKRFSPFNPREK
# modifications: cysteine pairing not given here; also: AD fusion
# notes: prey, AD fusion; also called Ubiquitin specific protease-like
# B22: PN29984 aa 1-38 (other)
# chain: APSSSSGTTSRPTASRTQQTKGRLTVTISLKAYSPGRT
# notes: as for B20
# B23: PN30870 aa 1-446 (other)
# chain: GEEDEHPHEGRAGVERRRQHVVVLLPPPLAVLEHEVVEDGARDEPARDVGRRRRRHPGEPVGDDGDVDERDPLLLRERPAEQPHRHGQHGAGEEQPHQVAVQAVAAEQPGGADEPPDHRRVERDPVLGARPRAVRVQRLHVADVVDAAQHPPRHRQVHHAGDHRAHQLRRVHAPRRDLHVVPQLEVREERQRVHRADPPVDLEQQVRDRLPRQRVPDHELRDDVVPRLLVGGGLDDADGEGDDEGEGEGEEHPPPRQLHLLPVHERHDQRHGDAADEQHEEPPLRHLLVPPHQLRVHVHLRRRGAHRRPALPPDVPAVEQRHVHDRRREPQEPGPDGDGEQRAQVQLPVALVRRHVEVELPREHLGGVVLLPGRREQLVGEDWELPRVERVELPVAERHDEVDEHDEARGGVGDGRPRRHQRAPVVRRDAGPVQCEGADAEAVVAG
# notes: prey, AD fusion; also called Isp-4 like
# B24: PN30857 aa 1-148 (other)
# chain: QDTRPLQAQRRRHGGGPQDRQREPSQGDFLRRQREEHPGGEEDRAPHGAGGHAAAGEGRGPRAGEHPQHQGGAAGAVGGGREGGGRAHLLRPRRHRDIGDRVGHTYCLSRLRRIAQNEQPSIHPCPSLAGQVIIRWEFRIGRDNNTFQ
# notes: prey, AD fusion; also called Novel protein PN30857
# B25: PN30844 aa 1-64 (other)
# chain: VAVRKKETRDGAMQTMPSRVQQGAADFEETLFVRCHLYCSGGAGTGKPLRFEPRPFLLSAVAVE
# notes: prey, AD fusion; also called Novel protein PN30844
# B26: PN29983 aa 1-131 (other)
# chain: GVETVVTDTAGNKVVVTGAADAAELKERIEARTKKAVQIVSAGAGPPPKKDKEEKKDKDKKGGGDDKKAEKEKGGGGGDKKAEKEKGGGDKPKEEKKAKEPKEETVTLKIRLHCEGCIDRIKRRICKIKGG
# notes: prey, AD fusion; also called Novel protein PN29983
# Molecular target: T1, OsCS aa 316-583
# Assay: Y2H; output trait library
# Procedure, shortened: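 The values record whether an interaction was detected. In an automated, high-throughput yeast two-hybrid screen from Myriad Genetics Inc., rice protein fragments defined by amino-acid range were used as bait against rice prey clone libraries. Full-length genes were identified by BLAST comparison of the sequences encoding the interacting prey fragments against databases.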
row,Binder,binding result
1,B1,binds
2,B2,binds
3,B3,binds
4,B4,binds

# Molecular target: T2, OsGF14-c aa 1-150
# Assay: Y2H; input trait library
# Procedure, shortened: (§1)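 Protein-protein interactions were detected with an automated, high-throughput yeast two-hybrid assay provided by Myriad Genetics Inc. (Salt Lake City, Utah). A bait clone encoding a defined amino-acid fragment of a rice protein was screened against a rice prey library, either the input trait or the output trait library. Prey clones were retrieved, and their encoding sequences were compared by BLAST against databases to identify the interacting proteins.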
row,Binder,binding result
1,B5,binds
2,B6,binds
3,B7,binds
4,B8,binds
5,B9,binds
6,B10,binds
7,B11,binds
8,B12,binds
9,B13,binds
10,B14,binds
11,B15,binds
12,B16,binds
13,B17,binds

# Molecular target: T3, OsERP (PN20696) aa 50-145
# Assay: Y2H; input trait library
# Procedure, shortened: as §1
row,Binder,binding result
1,B18,binds
2,B19,binds
3,B20,binds
4,B21,binds
5,B22,binds
6,B23,binds
7,B24,binds
8,B25,binds
9,B26,binds
